# B1: RPAIN (parent)
# chain: ISEYEKSLQFDEKCLSIMLAEWEA
# Variants of: B1
# Experiment: protein stability index of a GFP-peptide fusion (GPS, HEK-293T) (PSI 1-6); higher = more stable
# Conditions: c terminus: a fixed tail appended
# 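Note: lentivirally expressed fusions sorted by FACS into six bins by GFP to DsRed ratio, PSI derived from sequencing read proportions per bin multiplied by bin number.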
row,Variant,protein stability index
1,ASEYEKSLQFDEKCLSIMLAEWEA [I1A],2.29
2,PSEYEKSLQFDEKCLSIMLAEWEA [I1P],2.04
3,TSEYEKSLQFDEKCLSIMLAEWEA [I1T],3.12
4,YSEYEKSLQFDEKCLSIMLAEWEA [I1Y],1.48
5,FSEYEKSLQFDEKCLSIMLAEWEA [I1F],1.34
6,VSEYEKSLQFDEKCLSIMLAEWEA [I1V],2.15
7,ESEYEKSLQFDEKCLSIMLAEWEA [I1E],2.04
8,LSEYEKSLQFDEKCLSIMLAEWEA [I1L],1.64
9,KSEYEKSLQFDEKCLSIMLAEWEA [I1K],2.56
10,WSEYEKSLQFDEKCLSIMLAEWEA [I1W],1.26
11,SSEYEKSLQFDEKCLSIMLAEWEA [I1S],1.8
12,NSEYEKSLQFDEKCLSIMLAEWEA [I1N],1.69
13,ISSYEKSLQFDEKCLSIMLAEWEA [E3S],1.68
14,ISNYEKSLQFDEKCLSIMLAEWEA [E3N],3.69
15,ISAYEKSLQFDEKCLSIMLAEWEA [E3A],2.31
16,ISLYEKSLQFDEKCLSIMLAEWEA [E3L],1.54
17,ISPYEKSLQFDEKCLSIMLAEWEA [E3P],1.42
18,ISRYEKSLQFDEKCLSIMLAEWEA [E3R],2.4
19,ISEYEKSLQFDEKRLSIMLAEWEA [C14R],2.32
20,ISEYEKSLQFDEKTLSIMLAEWEA [C14T],1.71
21,ISEYEKSLQFDEKWLSIMLAEWEA [C14W],1.35
22,ISEYEKSLQFDEKMLSIMLAEWEA [C14M],1.58
23,ISEYEKSLQFDEKFLSIMLAEWEA [C14F],2.38
24,ISEYEKSLQFDEKKLSIMLAEWEA [C14K],1.59

row,Variant,protein stability index
1,ISEYEKSLQFDEKPLSIMLAEWEA [C14P],3.42
2,ISEYEKSLQFDEKLLSIMLAEWEA [C14L],1.44
3,ISEYEKSLQFDEKYLSIMLAEWEA [C14Y],1.16
4,ISEYEKSLQFDEKILSIMLAEWEA [C14I],2.16
5,ISEYEKSLQFDEKQLSIMLAEWEA [C14Q],2.24
6,ISEYEKSLQFDEKCLSIMLAEQEA [W22Q],3.08
7,ISEYEKSLQFDEKCLSIMLAENEA [W22N],4.3
8,ISEYEKSLQFDEKCLSIMLAESEA [W22S],2.11
9,ISEYEKSLQFDEKCLSIMLAEMEA [W22M],1.78
10,ISEYEKSLQFDEKCLSIMLAELEA [W22L],2.15
11,ICEYEKSLQFDEKCLSIMLAEWEA [S2C],1.41
12,IWEYEKSLQFDEKCLSIMLAEWEA [S2W],2.59
13,IFEYEKSLQFDEKCLSIMLAEWEA [S2F],1.7
14,IHEYEKSLQFDEKCLSIMLAEWEA [S2H],1.5
15,IEEYEKSLQFDEKCLSIMLAEWEA [S2E],1.16
16,ISEYEKSLQFDEKCASIMLAEWEA [L15A],3.74
17,ISEYEKSLQFDEKCESIMLAEWEA [L15E],4.41
18,ISEYEKSLQFDEKCISIMLAEWEA [L15I],3.52
19,ISEYEKSLQFDEKCQSIMLAEWEA [L15Q],3.73
20,ISEYEKSLQFDEKCWSIMLAEWEA [L15W],2.86
21,ISEYEKSLQFDEKCYSIMLAEWEA [L15Y],3.38
22,ISEYEKSLQFDEKCCSIMLAEWEA [L15C],2.66
23,ISEYEKSLQFDEKCSSIMLAEWEA [L15S],3.92
24,ISEYEKSLQFDEKCMSIMLAEWEA [L15M],2.2

row,Variant,protein stability index
1,ISEYEKSLQFDEKCTSIMLAEWEA [L15T],3.73
2,ISEQEKSLQFDEKCLSIMLAEWEA [Y4Q],1.8
3,ISEIEKSLQFDEKCLSIMLAEWEA [Y4I],2.15
4,ISEKEKSLQFDEKCLSIMLAEWEA [Y4K],2.1
5,ISEMEKSLQFDEKCLSIMLAEWEA [Y4M],2.15
6,ISEDEKSLQFDEKCLSIMLAEWEA [Y4D],2.12
7,ISEWEKSLQFDEKCLSIMLAEWEA [Y4W],1.92
8,ISEPEKSLQFDEKCLSIMLAEWEA [Y4P],1.41
9,ISEGEKSLQFDEKCLSIMLAEWEA [Y4G],1.83
10,ISENEKSLQFDEKCLSIMLAEWEA [Y4N],2.15
11,ISEYEKSLQFDEKCLYIMLAEWEA [S16Y],2.83
12,ISEYEKSLQFDEKCLVIMLAEWEA [S16V],1.88
13,ISEYEKSLQFDEKCLPIMLAEWEA [S16P],2.85
14,ISEYEKSLQFDEKCLHIMLAEWEA [S16H],2.56
15,ISEYEKSLQFDEKCLQIMLAEWEA [S16Q],2.11
16,ISEYEKSLQFDEKCLNIMLAEWEA [S16N],1.37
17,ISEYEKSLQFDEKCLAIMLAEWEA [S16A],2.32
18,ISEYEKSLQFDEKCLSIMWAEWEA [L19W],2.5
19,ISEYEKSLQFDEKCLSIMYAEWEA [L19Y],2.88
20,ISEYEKSLQFDEKCLSIMVAEWEA [L19V],2.64
21,ISEYEKSLQFDEKCLSIMGAEWEA [L19G],3.04
22,ISEYEKSLQFDEKCLSIMDAEWEA [L19D],4.34
23,ISEYEKSLQFDEKCLSIMMAEWEA [L19M],2.12
24,ISEYEKSLQFDEKCLSIMCAEWEA [L19C],2.79

row,Variant,protein stability index
1,ISEYEKSLQFDEKCLSIMSAEWEA [L19S],3.4
2,ISEYEKSLQFDEKCLSIMLNEWEA [A20N],1.44
3,ISEYEKSLQFDEKCLSIMLHEWEA [A20H],1.64
4,ISEYEKSLQFDEKCLSIMLGEWEA [A20G],2.01
5,ISEYEKSLQFDEKCLSIMLSEWEA [A20S],1.88
6,ISEYEKSLQFDEKCLSIMLREWEA [A20R],1.25
7,ISEYEKSLQFDEKCLSIMLCEWEA [A20C],1.77
8,ISEYEKSLQFDEKCLSIPLAEWEA [M18P],4.27
9,ISEYEKSLQFDEKCLSIKLAEWEA [M18K],2.19
10,ISEYEKSLQFDEKCLSISLAEWEA [M18S],2.56
11,ISEYEKSLQFDEKCLSITLAEWEA [M18T],2.79
12,ISEYEKSLQFDEKCLSIFLAEWEA [M18F],2.5
13,ISEYEKSLDFDEKCLSIMLAEWEA [Q9D],2.02
14,ISEYEKSLSFDEKCLSIMLAEWEA [Q9S],1.7
15,ISEYEKSLIFDEKCLSIMLAEWEA [Q9I],1.96
16,ISEYEKSLLFDEKCLSIMLAEWEA [Q9L],1.46
17,ISEYEKSLAFDEKCLSIMLAEWEA [Q9A],1.76
18,ISEYEKSLYFDEKCLSIMLAEWEA [Q9Y],1.58
19,ISEYEKSLPFDEKCLSIMLAEWEA [Q9P],1.95
20,ISEYEKSLQHDEKCLSIMLAEWEA [F10H],3.33
21,ISEYEKSLQDDEKCLSIMLAEWEA [F10D],3.15
22,ISEYEKSLQMDEKCLSIMLAEWEA [F10M],2.45

# Reference: the supplement of paper PMC10567573
